Laboratory results reported in patent US9327008B2, “Cell-permeant peptide-based inhibitor of kinases” (Purdue Research Foundation, priority 2008, dated 2016).

Tests used:
Assay type in all cases: biochemical
AMPK = experiment: Millipore radiometric kinase activity assay, AMPK (r); conditions: rat AMPK
Protocol: (§1) A commercial radiometric assay service (Millipore, Billerica, Mass.) was used to test the specificity and potency of peptides containing a coupled transduction domain and therapeutic domain, hereinafter “complete peptides”). In these assays, if the kinase is not inhibited by an inhibitor peptide, a positively charged substrate is phosphorylated with a radiolabeled phosphate group from an ATP.
(§2) In a final reaction volume of 25 AMPK (r) (5-10 mU) is incubated with 32 mM HEPES pH 7.4, 0.65 mM DTT, 0.012% Brij-35, 200 μM AMP, 200 μM […] [SEQ ID NO: 49], 10 mM MgAcetate and [γ-^33P-ATP] (specific activity approx. 500 cpm/pmol, concentration as required). The reaction is initiated by the addition of the MgATP mix. After incubation for 40 minutes at room temperature, the reaction is stopped by the addition of 5 μL of a 3% phosphoric acid solution. 10 μL of the reaction is then spotted onto a P30 filtermat and washed three times for 5 minutes in 75 mM phosphoric acid and once in methanol prior to drying and scintillation counting.
(§3) IC50 values for inhibitor peptides were determined using Millipore's IC50Profiler Express service. The IC50 value was estimated from a 10-point curve of one-half log dilutions. For peptides tested for specificity, the concentration of the peptides that inhibited approximately 95% of MK2 activity was chosen to profile against a battery of kinases related to MK2, cell viability, or human disease from MilliporeKinaseProfiler service. In both assays, compounds were supplied in dimethylsulfoxide (DMSO). Every kinase activity measurement was conducted in duplicate.
(§4) Therapeutic inhibitor peptides were assayed for activity against human kinases related to MK2, cell viability, or human disease. The assays were performed using concentrations of therapeutic inhibitor peptides that yielded 2% to 8% of normal MK2 activity. Error is reported as the standard deviation between 2 samples, and “c” is rat AMPK whereas all other kinases used are human kinases.

CK2 = target: T1, CK2 (Homo sapiens, UniProt P68400); experiment: Millipore radiometric kinase activity assay, CK2 (h)
T1 construct: purchased Millipore (assay service)
T1 sequence (P68400 whole entry): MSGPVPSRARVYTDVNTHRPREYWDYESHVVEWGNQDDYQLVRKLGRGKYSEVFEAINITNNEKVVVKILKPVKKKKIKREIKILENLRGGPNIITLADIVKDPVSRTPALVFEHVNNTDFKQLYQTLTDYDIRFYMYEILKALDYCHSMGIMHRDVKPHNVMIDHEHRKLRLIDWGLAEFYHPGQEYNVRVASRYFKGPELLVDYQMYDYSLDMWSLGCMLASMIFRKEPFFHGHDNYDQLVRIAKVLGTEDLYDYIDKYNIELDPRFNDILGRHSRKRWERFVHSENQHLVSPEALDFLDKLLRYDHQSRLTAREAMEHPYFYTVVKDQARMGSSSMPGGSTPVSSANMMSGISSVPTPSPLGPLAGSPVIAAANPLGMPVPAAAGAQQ
T1 sequence (P67870 whole entry partner): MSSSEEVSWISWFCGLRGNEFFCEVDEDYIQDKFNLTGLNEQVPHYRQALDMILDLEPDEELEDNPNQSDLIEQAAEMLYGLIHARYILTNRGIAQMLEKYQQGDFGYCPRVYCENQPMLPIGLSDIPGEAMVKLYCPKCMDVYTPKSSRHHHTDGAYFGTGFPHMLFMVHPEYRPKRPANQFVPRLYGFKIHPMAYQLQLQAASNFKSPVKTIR
Protocol: as §1
as §2, with “μL, CK2 (h)” for “AMPK (r)”, “20” for “32”, “7.6, 0.15 M NaCl, 0.1 mM EDTA, 5” for “7.4, 0.65”, “0.1% Triton X-100, 165” for “0.012% Brij-35, 200 μM AMP, 200”, “55],” for “49],”
as §3, §4

GSK3β = target: T2, GSK3β (Homo sapiens, UniProt P49841); experiment: Millipore radiometric kinase activity assay, GSK3β (h)
T2 construct: purchased Millipore (assay service)
T2 sequence (P49841 whole entry): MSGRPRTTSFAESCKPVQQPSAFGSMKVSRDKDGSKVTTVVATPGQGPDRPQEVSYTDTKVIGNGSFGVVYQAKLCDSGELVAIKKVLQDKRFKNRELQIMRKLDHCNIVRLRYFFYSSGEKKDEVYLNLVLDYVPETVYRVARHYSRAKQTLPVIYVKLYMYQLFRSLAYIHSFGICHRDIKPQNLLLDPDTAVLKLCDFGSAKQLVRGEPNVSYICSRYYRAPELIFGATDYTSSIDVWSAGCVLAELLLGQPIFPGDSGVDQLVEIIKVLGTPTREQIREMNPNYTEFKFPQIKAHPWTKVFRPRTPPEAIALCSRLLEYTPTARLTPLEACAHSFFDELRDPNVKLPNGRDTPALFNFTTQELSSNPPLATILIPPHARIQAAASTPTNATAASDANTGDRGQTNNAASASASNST
Protocol: as §1
In a final reaction volume of 25 μL, GSK3β (h) (5-10 mU) is incubated with 8 mM MOPS pH 7.0, 0.2 mM EDTA, 20 μM […](p)EDEEE [SEQ ID NO: 57] (phospho GS2 peptide), 10 mM MgAcetate and [γ-^33P-ATP] (specific activity approx. 500 cpm/pmol, concentration as required). The reaction is initiated by the addition of the MgATP mix. After incubation for 40 minutes at room temperature, the reaction is stopped by the addition of 5 μL of a 3% phosphoric acid solution. 10 μL of the reaction is then spotted onto a P30 filtermat and washed three times for 5 minutes in 50 mM phosphoric acid and once in methanol prior to drying and scintillation counting.
as §3, §4

PKCβI = target: T3, PKCβI (Homo sapiens, UniProt P05771); experiment: Millipore radiometric kinase activity assay, PKCβI (h)
T3 construct: purchased Millipore (radiometric assay service)
T3 sequence (P05771 whole entry): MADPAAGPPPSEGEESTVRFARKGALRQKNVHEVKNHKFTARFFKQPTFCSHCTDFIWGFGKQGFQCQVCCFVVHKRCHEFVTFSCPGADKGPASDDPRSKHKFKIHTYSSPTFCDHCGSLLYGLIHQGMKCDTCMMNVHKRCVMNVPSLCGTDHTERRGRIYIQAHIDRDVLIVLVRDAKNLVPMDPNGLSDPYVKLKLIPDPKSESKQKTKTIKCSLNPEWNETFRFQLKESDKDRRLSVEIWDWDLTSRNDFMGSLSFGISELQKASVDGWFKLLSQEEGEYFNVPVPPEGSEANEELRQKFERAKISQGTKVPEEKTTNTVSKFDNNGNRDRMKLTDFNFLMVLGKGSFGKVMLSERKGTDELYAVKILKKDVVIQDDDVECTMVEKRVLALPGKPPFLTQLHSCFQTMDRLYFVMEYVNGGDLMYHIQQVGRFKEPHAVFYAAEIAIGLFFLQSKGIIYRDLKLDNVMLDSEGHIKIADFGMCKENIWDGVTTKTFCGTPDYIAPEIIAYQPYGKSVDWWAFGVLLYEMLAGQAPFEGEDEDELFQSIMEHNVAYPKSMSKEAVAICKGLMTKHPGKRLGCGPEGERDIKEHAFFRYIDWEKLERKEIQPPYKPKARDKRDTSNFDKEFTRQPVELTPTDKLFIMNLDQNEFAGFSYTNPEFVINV
Protocol: as §1
In a final reaction volume of 25 μL, PKCβI (h) (5-10 mU) is incubated with 20 mM HEPES pH 7.4, 0.03% Triton X-100, 0.1 mM CaCl2, 0.1 mg/mL phosphatidylserine, 10 μg/mL diacylglycerol, 0.1 mg/mL histone H1, 10 mM MgAcetate and [γ-^33P-ATP] (specific activity approx. 500 cpm/pmol, concentration as required). The reaction is initiated by the addition of the MgATP mix. After incubation for 40 minutes at room temperature, the reaction is stopped by the addition of 5 μL of a 3% phosphoric acid solution. 10 μL of the reaction is then spotted onto a P30 filtermat and washed three times for 5 minutes in 75 mM phosphoric acid and once in methanol prior to drying and scintillation counting.
as §3, §4

Rsk2 = target: T4, Rsk2 (Homo sapiens, UniProt P51812); experiment: Millipore radiometric kinase activity assay, Rsk2 (h)
T4 construct: purchased Millipore (radiometric assay service)
T4 sequence (P51812 whole entry): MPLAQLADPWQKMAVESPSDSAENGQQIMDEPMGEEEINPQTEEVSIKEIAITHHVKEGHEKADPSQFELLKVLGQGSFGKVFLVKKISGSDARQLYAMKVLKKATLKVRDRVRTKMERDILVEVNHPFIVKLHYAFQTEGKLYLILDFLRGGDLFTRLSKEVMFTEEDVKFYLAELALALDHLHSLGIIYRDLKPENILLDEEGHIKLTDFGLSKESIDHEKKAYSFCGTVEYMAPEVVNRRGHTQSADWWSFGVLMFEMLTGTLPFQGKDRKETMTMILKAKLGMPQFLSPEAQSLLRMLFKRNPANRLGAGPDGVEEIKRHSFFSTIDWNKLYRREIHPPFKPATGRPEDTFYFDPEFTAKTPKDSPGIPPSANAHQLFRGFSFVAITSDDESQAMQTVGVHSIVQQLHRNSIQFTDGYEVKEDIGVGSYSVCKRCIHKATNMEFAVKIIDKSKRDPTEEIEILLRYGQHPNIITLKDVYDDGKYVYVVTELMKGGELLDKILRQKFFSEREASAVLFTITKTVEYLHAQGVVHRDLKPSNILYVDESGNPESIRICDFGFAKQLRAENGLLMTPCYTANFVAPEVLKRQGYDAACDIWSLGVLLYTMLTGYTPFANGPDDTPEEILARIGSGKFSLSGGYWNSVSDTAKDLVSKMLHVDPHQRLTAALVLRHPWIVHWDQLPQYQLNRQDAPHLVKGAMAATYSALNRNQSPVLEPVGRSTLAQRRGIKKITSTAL
Protocol: as §1
(§5) In a final reaction volume of 25 μL, Rsk2 (h) (5-10 mU) is incubated with 8 mM MOPS pH 7.0, 0.2 mM EDTA, 30 μM […] [SEQ ID NO: 64], 10 mM MgAcetate and [γ-^33P-ATP] (specific activity approx. 500 cpm/pmol, concentration as required). The reaction is initiated by the addition of the MgATP mix. After incubation for 40 minutes at room temperature, the reaction is stopped by the addition of 5 μL it of a 3% phosphoric acid solution. 10 μL, of the reaction is then spotted onto a P30 filtermat and washed three times for 5 minutes in 75 mM phosphoric acid and once in methanol prior to drying and scintillation counting.
as §3, §4

TrkA = target: T5, TrkA (Homo sapiens, UniProt P04629); experiment: Millipore radiometric kinase activity assay, TrkA (h)
T5 construct: purchased Millipore (radiometric assay service)
T5 sequence (P04629 33-796): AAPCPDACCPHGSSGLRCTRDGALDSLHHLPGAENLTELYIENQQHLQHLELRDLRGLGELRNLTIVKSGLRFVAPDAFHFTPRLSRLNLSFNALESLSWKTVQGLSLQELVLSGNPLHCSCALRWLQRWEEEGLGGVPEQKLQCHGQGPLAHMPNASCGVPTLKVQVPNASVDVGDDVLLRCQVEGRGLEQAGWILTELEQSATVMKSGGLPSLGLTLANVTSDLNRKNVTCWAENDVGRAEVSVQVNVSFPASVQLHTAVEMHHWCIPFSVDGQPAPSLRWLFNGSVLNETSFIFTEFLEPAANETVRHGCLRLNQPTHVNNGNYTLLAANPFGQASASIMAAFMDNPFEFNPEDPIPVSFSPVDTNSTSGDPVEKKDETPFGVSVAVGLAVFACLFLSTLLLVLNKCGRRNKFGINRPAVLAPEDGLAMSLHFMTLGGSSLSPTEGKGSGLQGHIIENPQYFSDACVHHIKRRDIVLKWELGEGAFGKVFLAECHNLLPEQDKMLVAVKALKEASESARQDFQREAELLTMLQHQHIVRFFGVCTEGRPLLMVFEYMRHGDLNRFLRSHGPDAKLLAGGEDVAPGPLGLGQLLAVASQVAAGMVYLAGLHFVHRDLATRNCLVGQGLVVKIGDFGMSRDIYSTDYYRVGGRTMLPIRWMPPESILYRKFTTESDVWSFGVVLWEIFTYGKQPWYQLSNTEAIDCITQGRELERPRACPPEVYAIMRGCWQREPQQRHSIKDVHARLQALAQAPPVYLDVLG
Protocol: as §1
as §5, with “μL, TrkA” for “μL, Rsk2”, “EDTA, 250” for “EDTA, 30”, “NO: 56],” for “NO: 64],”, “μL” for “μL it”, “10 μL” for “10 μL,”
as §3, §4

Row | Sequence | AMPK Kinase Activity (%) (+SD %) (AMPK; peptide 30 μM) | AMPK Kinase Activity (%) (+SD %) (AMPK; peptide 100 μM) | CK2 Kinase Activity (%) (+SD %) (CK2; peptide 30 μM) | CK2 Kinase Activity (%) (+SD %) (CK2; peptide 100 μM) | GSK3β Kinase Activity (%) (+SD %) (GSK3β; peptide 30 μM) | GSK3β Kinase Activity (%) (+SD %) (GSK3β; peptide 100 μM) | PKCβ1 Kinase Activity (%) (+SD %) (PKCβI; peptide 30 μM) | PKCβ1 Kinase Activity (%) (+SD %) (PKCβI; peptide 100 μM) | Rsk2 Kinase Activity (%) (+SD %) (Rsk2; peptide 30 μM) | Rsk2 Kinase Activity (%) (+SD %) (Rsk2; peptide 100 μM) | TrkA Kinase Activity (%) (+SD %) (TrkA; peptide 30 μM) | TrkA Kinase Activity (%) (+SD %) (TrkA; peptide 100 μM)
1 | WLRRIKAWLRRIKALNRQLGVAA | 36 (4) % | 101 (6) % | 114 (4) % | 80 (14) % | 129 (2) % | 188 (4) % | 8 (4) % | 73 (0) % | 14 (5) % | −1 (1) % | 6 (1) % | 17 (2) %
2 | KAFAKLAARLYRKALARQLGVAA | – | 118 (7) % | – | 79 (12) % | – | 184 (1) % | – | 23 (3) % | – | 6 (1) % | – | 16 (2) %
